Source: the supplement of paper PMC10567573

B1: TRIM43 (parent)
chain: FCDMDKSLLCLLCSNSQEHGAHKH

Variants of: B1
Test: protein stability index of a GFP-peptide fusion (GPS, HEK-293T) (PSI 1-6); higher = more stable
Details: c terminus: a fixed tail appended
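Note: lentivirally expressed fusions sorted by FACS into six bins by GFP to DsRed ratio, PSI derived from sequencing read proportions per bin multiplied by bin number.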

First: FCDMDKSLLCLLHSNSQEHGAHKH [C13H]
Second: FCDMDKSLLCLLGSNSQEHGAHKH [C13G]
The protein stability index of the first is lower: 1.88 for the first, 1.9 for the second.

Compared with FCDMDKSLLCLLQSNSQEHGAHKH [C13Q], FCDMDKSLLCLLYSNSQEHGAHKH [C13Y] is lower in protein stability index: 2.53 for the first, 1.68 for the second.

Compared with FCDMDKSLLCLLDSNSQEHGAHKH [C13D], FCDMDKSLLCLLPSNSQEHGAHKH [C13P] is higher in protein stability index: 1.99 for the first, 2.13 for the second.

Going from FCDMDKSLLCLLRSNSQEHGAHKH [C13R] to FCDMDKSLLCLLMSNSQEHGAHKH [C13M], the protein stability index rises from 2.13 to 2.19.

Compared with FCDMDKSLLCLLCSNSQRHGAHKH [E18R], FCDMDKSLLCLLCSNSQDHGAHKH [E18D] is higher in protein stability index: 1.86 for the first, 2.11 for the second.

First: FCDMDKSLLCLLCSNSQGHGAHKH [E18G]
Second: FCDMDKSLLCLLCSNSQFHGAHKH [E18F]
The protein stability index of the first is higher: 1.78 for the first, 1.75 for the second.

Going from FCDMDKSLLCLLCSNSQHHGAHKH [E18H] to FCDMDKSLLCLLCSNSQNHGAHKH [E18N], the protein stability index rises from 1.81 to 1.87.

First: FCDMDKSLLCLLCSNSQWHGAHKH [E18W]
Second: FCDMDKSLLCLLCSNSQTHGAHKH [E18T]
The protein stability index of the first is higher: 1.98 for the first, 1.68 for the second.

Going from FCDMDKSLLCLLCSNSQVHGAHKH [E18V] to FCDMDKSLLCLLCSNSQPHGAHKH [E18P], the protein stability index falls from 2.28 to 1.83.

First: FCDMDKSLLCLLCSNSQCHGAHKH [E18C]
Second: FCDMDKSLLCLLCSNSQQHGAHKH [E18Q]
The protein stability index of the first is higher: 2.3 for the first, 1.93 for the second.

Compared with FCDMDKSLLCLLCSNSQMHGAHKH [E18M], FCDMDKSLLCLLCSNSQSHGAHKH [E18S] is lower in protein stability index: 1.83 for the first, 1.63 for the second.

Going from FCDMDKSLLCLLCSNSQIHGAHKH [E18I] to FCDMDKSLLCLLCSNSQYHGAHKH [E18Y], the protein stability index rises from 1.4 to 1.71.

Compared with FCDMDKSLLCLLCSNSQLHGAHKH [E18L], FCDMDKSLLCLLCSNSQAHGAHKH [E18A] is higher in protein stability index: 1.7 for the first, 2.12 for the second.

Going from FCDMDKSLLCLLCSNSQKHGAHKH [E18K] to FCDMDKSLLCLLCSNSAEHGAHKH [Q17A], the protein stability index falls from 1.86 to 1.85.

Going from FCDMDKSLLCLLCSNSLEHGAHKH [Q17L] to FCDMDKSLLCLLCSNSNEHGAHKH [Q17N], the protein stability index falls from 1.63 to 1.51.

Compared with FCDMDKSLLCLLCSNSHEHGAHKH [Q17H], FCDMDKSLLCLLCSNSYEHGAHKH [Q17Y] is higher in protein stability index: 1.76 for the first, 2.19 for the second.

First: FCDMDKSLLCLLCSNSPEHGAHKH [Q17P]
Second: FCDMDKSLLCLLCSNSIEHGAHKH [Q17I]
The protein stability index of the first is lower: 1.7 for the first, 1.78 for the second.

First: FCDMDKSLLCLLCSNSMEHGAHKH [Q17M]
Second: FCDMDKSLLCLLCSNSDEHGAHKH [Q17D]
The protein stability index of the first is lower: 1.58 for the first, 1.78 for the second.

Compared with FCDMDKSLLCLLCSNSFEHGAHKH [Q17F], FCDMDKSLLCLLCSNSSEHGAHKH [Q17S] is lower in protein stability index: 2.05 for the first, 1.55 for the second.

Going from FCDMDKSLLCLLCSNSVEHGAHKH [Q17V] to FCDMDKSLLCLLCSNSWEHGAHKH [Q17W], the protein stability index rises from 1.67 to 1.74.

Going from FCDMDKSLLCLLCSNSCEHGAHKH [Q17C] to FCDMDKSLLCLLCSNSREHGAHKH [Q17R], the protein stability index falls from 2.22 to 1.6.

Going from FCDMDKSLLCLLCSNSEEHGAHKH [Q17E] to FCDMDKSLLCLLCSNSTEHGAHKH [Q17T], the protein stability index falls from 2.1 to 1.61.

Compared with FCDMDKSLLCLLCSNSKEHGAHKH [Q17K], FCDMDKSLLCLLCSNSGEHGAHKH [Q17G] is lower in protein stability index: 2.13 for the first, 1.84 for the second.

Compared with FCDMDKSLLCLTCSNSQEHGAHKH [L12T], FCDMDKSLLCLYCSNSQEHGAHKH [L12Y] is lower in protein stability index: 1.95 for the first, 1.75 for the second.

Compared with FCDMDKSLLCLPCSNSQEHGAHKH [L12P], FCDMDKSLLCLSCSNSQEHGAHKH [L12S] is higher in protein stability index: 1.91 for the first, 2.65 for the second.

First: FCDMDKSLLCLQCSNSQEHGAHKH [L12Q]
Second: FCDMDKSLLCLMCSNSQEHGAHKH [L12M]
The protein stability index of the first is higher: 2.65 for the first, 2.06 for the second.

First: FCDMDKSLLCLVCSNSQEHGAHKH [L12V]
Second: FCDMDKSLLCLNCSNSQEHGAHKH [L12N]
The protein stability index of the first is lower: 1.93 for the first, 2.14 for the second.

Going from FCDMDKSLLCLWCSNSQEHGAHKH [L12W] to FCDMDKSLLCLRCSNSQEHGAHKH [L12R], the protein stability index falls from 3.13 to 1.96.

Going from FCDMDKSLLCLLCSNSQEHAAHKH [G20A] to FCDMDKSLLCLLCSNSQEHIAHKH [G20I], the protein stability index falls from 1.89 to 1.66.

Going from FCDMDKSLLCLLCSNSQEHEAHKH [G20E] to FCDMDKSLLCLLCSNSQEHNAHKH [G20N], the protein stability index falls from 2.36 to 2.03.

First: FCDMDKSLLCLLCSNSQEHQAHKH [G20Q]
Second: FCDMDKSLLCLLCSNSQEHDAHKH [G20D]
The protein stability index of the first is lower: 1.95 for the first, 2.19 for the second.

Compared with FCDMDKSLLCLLCSNSQEHVAHKH [G20V], FCDMDKSLLCLLCSNSQEHTAHKH [G20T] is lower in protein stability index: 2.35 for the first, 2.12 for the second.

First: FCDMDKSLLCLLCSNSQEHFAHKH [G20F]
Second: FCDMDKSLLCLLCSNSQEHKAHKH [G20K]
The protein stability index of the first is lower: 1.67 for the first, 1.93 for the second.

First: FCDMDKSLLCLLCSNSQEHHAHKH [G20H]
Second: FCDMDKSLLCLLCSNSQEHYAHKH [G20Y]
The protein stability index of the first is lower: 1.92 for the first, 2.28 for the second.

Going from FCDMDKSLLCLLCSNSQEHRAHKH [G20R] to FCDMDKSLLCLLCSNSQEHWAHKH [G20W], the protein stability index falls from 1.9 to 1.56.

Going from FCDMDKSLLCLLCSNSQEHCAHKH [G20C] to FCDMDKSLLCLLCSNSQEHPAHKH [G20P], the protein stability index falls from 2.59 to 2.27.

First: FCDMDKSLLCLLCSNSQEHSAHKH [G20S]
Second: FCDMDKSLLCLLCSNSQEHMAHKH [G20M]
The protein stability index of the first is higher: 1.99 for the first, 1.47 for the second.

First: FCDMDKSLLCLLCSNSQEHLAHKH [G20L]
Second: FCDMDKSLLCLLCSTSQEHGAHKH [N15T]
The protein stability index of the first is lower: 1.74 for the first, 1.77 for the second.

Compared with FCDMDKSLLCLLCSCSQEHGAHKH [N15C], FCDMDKSLLCLLCSPSQEHGAHKH [N15P] is lower in protein stability index: 1.77 for the first, 1.34 for the second.

Going from FCDMDKSLLCLLCSQSQEHGAHKH [N15Q] to FCDMDKSLLCLLCSDSQEHGAHKH [N15D], the protein stability index rises from 1.87 to 2.26.

First: FCDMDKSLLCLLCSKSQEHGAHKH [N15K]
Second: FCDMDKSLLCLLCSGSQEHGAHKH [N15G]
The protein stability index of the first is higher: 2.26 for the first, 1.94 for the second.

Going from FCDMDKSLLCLLCSRSQEHGAHKH [N15R] to FCDMDKSLLCLLCSESQEHGAHKH [N15E], the protein stability index falls from 2.1 to 1.92.

Going from FCDMDKSLLCLLCSASQEHGAHKH [N15A] to FCDMDKSLLCLLCSWSQEHGAHKH [N15W], the protein stability index rises from 1.6 to 1.89.

Going from FCDMDKSLLCLLCSLSQEHGAHKH [N15L] to FCDMDKSLLCLLCSMSQEHGAHKH [N15M], the protein stability index falls from 2.4 to 1.66.

Going from FCDMDKSLLCLLCSHSQEHGAHKH [N15H] to FCDMDKSLLCLLCSYSQEHGAHKH [N15Y], the protein stability index rises from 1.55 to 2.09.

Compared with FCDMDKSLLCLLCSSSQEHGAHKH [N15S], FCDMDKSLLCLLCSISQEHGAHKH [N15I] is higher in protein stability index: 2.07 for the first, 2.49 for the second.

Compared with FCDMDKSLLCLLCSVSQEHGAHKH [N15V], FCDMDKSLLCLLCSFSQEHGAHKH [N15F] is higher in protein stability index: 1.89 for the first, 2.01 for the second.
